Results on 94 variants are retold here after the supplement of paper PMC10567573.

B1: FBF1 (parent)
chain: QLQCSPAELQAELLHSQARLAELE
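Note: lentivirally expressed fusions sorted by FACS into six bins by GFP to DsRed ratio, PSI derived from sequencing read proportions per bin multiplied by bin number.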

The variants in this data set derive from B1. Nature of the data set: protein stability index of a GFP-peptide fusion (GPS, HEK-293T) (PSI 1-6); higher = more stable. The conditions noted are these: c terminus: a fixed tail appended.
In the case of QLQCSPAELQAELLHDQARLAELE [S16D], the protein stability index worked out at 5.03.
The same measure for QLQCSPAELQAELLHMQARLAELE [S16M]: 3.33.
The same measure for QLQCSPAELQAELLHEQARLAELE [S16E]: 4.81; for QLQCSPAELQAELLHNQARLAELE [S16N]: 4.33; for QLQCSPAELQAELLHAQARLAELE [S16A]: 2.88.
Under QLQCSPAELQAELLHYQARLAELE [S16Y] stands 3.49; under QLQCSPAELQAELLHRQARLAELE [S16R], 4.02; under QLQCSPAELQAELLHIQARLAELE [S16I], 2.81.
For the variant QLQCSPAELQAELLHWQARLAELE [S16W], the protein stability index turned out to be 3.35.
The same measure for QLQCSPAELQAELLHLQARLAELE [S16L]: 3.91; for QLQCSPAELQAELLHPQARLAELE [S16P]: 4.17.
Under QLQCSPAELQAELLHQQARLAELE [S16Q] stands 4.06; under QLQCSPAELQAELLHGQARLAELE [S16G], 4.86.
As to QLQCSPAELQAELLHCQARLAELE [S16C], the protein stability index was determined as 4.23.
Regarding QLQCSPAELQAELLHFQARLAELE [S16F], the protein stability index was 3.78.
Under QLQCSPAELQAELLHKQARLAELE [S16K] stands 3.9; under QLQCSPAELQAELLHVQARLAELE [S16V], 4.15; under QLQCSPAELQAELLHHQARLAELE [S16H], 4.46.
The same measure for QLQCSPAELQAELLHTQARLAELE [S16T]: 2.95; for QLQCSPAELQAELLHSQARPAELE [L20P]: 4.76; for QLQCSPAELQAELLHSQARNAELE [L20N]: 4.96.
Under QLQCSPAELQAELLHSQARWAELE [L20W] stands 4.22.
QLQCSPAELQAELLHSQARFAELE [L20F]: the protein stability index amounted to 3.37.
The same measure for QLQCSPAELQAELLHSQAREAELE [L20E]: 4.63.
Under QLQCSPAELQAELLHSQARVAELE [L20V] stands 3.34.
Under QLQCSPAELQAELLHSQARDAELE [L20D] stands 4.91; under QLQCSPAELQAELLHSQARYAELE [L20Y], 4.12; under QLQCSPAELQAELLHSQARMAELE [L20M], 3.87.
Take QLQCSPAELQAELLHSQARQAELE [L20Q]: the protein stability index came out at 5.33.
The same measure for QLQCSPAELQAELLHSQARRAELE [L20R]: 4.62.
The same measure for QLQCSPAELQAELLHSQARAAELE [L20A]: 4.91.
Turning to QLQCSPAELQAELLHSQARKAELE [L20K], the protein stability index was determined as 4.66.
In the case of QLQCSPAELQAELLHSQARHAELE [L20H], the protein stability index worked out at 4.05.
Under QLQCSPAELQAELLHSQARCAELE [L20C] stands 3.35.
Under QLQCSPAELQAELLHSQARSAELE [L20S] stands 4.7; under QLQCSPAELQAELLHSQARIAELE [L20I], 3.59.
As to QLQCSPAELQAELLHSQARTAELE [L20T], the protein stability index worked out at 4.66.
Under QLQCSPAELQAELLHSQARGAELE [L20G] stands 4.74.
As for QLQCSPAELQAELLHSAARLAELE [Q17A], the protein stability index stood at 3.4.
The same measure for QLQCSPAELQAELLHSLARLAELE [Q17L]: 2.92; for QLQCSPAELQAELLHSDARLAELE [Q17D]: 4.55; for QLQCSPAELQAELLHSVARLAELE [Q17V]: 3.44.
Under QLQCSPAELQAELLHSGARLAELE [Q17G] stands 3.74; under QLQCSPAELQAELLHSYARLAELE [Q17Y], 3.52.
Regarding QLQCSPAELQAELLHSTARLAELE [Q17T], the protein stability index is 3.97.
For the variant QLQCSPAELQAELLHSCARLAELE [Q17C], the protein stability index is 3.62.
On to QLQCSPAELQAELLHSWARLAELE [Q17W], for which the protein stability index came out at 3.16.
The same measure for QLQCSPAELQAELLHSMARLAELE [Q17M]: 3.65; for QLQCSPAELQAELLHSFARLAELE [Q17F]: 3.26; for QLQCSPAELQAELLHSSARLAELE [Q17S]: 3.98.
The same measure for QLQCSPAELQAELLHSKARLAELE [Q17K]: 4.11; for QLQCSPAELQAELLHSPARLAELE [Q17P]: 4.52; for QLQCSPAELQAELLHSEARLAELE [Q17E]: 3.77.
Under QLQCSPAELQAELLHSIARLAELE [Q17I] stands 3.07; under QLQCSPAELQAELLHSHARLAELE [Q17H], 4.31.
As to QLQCSPAELQAELLHSRARLAELE [Q17R], the protein stability index turned out to be 3.68.
The same measure for QLQCSPAELQAELLHSNARLAELE [Q17N]: 4.25; for QLQCSPAELQAELEHSQARLAELE [L14E]: 4.39.
Under QLQCSPAELQAELRHSQARLAELE [L14R] stands 3.33; under QLQCSPAELQAELSHSQARLAELE [L14S], 3.67.
The same measure for QLQCSPAELQAELWHSQARLAELE [L14W]: 2.93; for QLQCSPAELQAELCHSQARLAELE [L14C]: 3.3; for QLQCSPAELQAELQHSQARLAELE [L14Q]: 3.59.
As for QLQCSPAELQAELVHSQARLAELE [L14V], the protein stability index stood at 4.08.
As for QLQCSPAELQAELMHSQARLAELE [L14M], the protein stability index turned out to be 2.93.
Under QLQCSPAELQAELNHSQARLAELE [L14N] stands 2.85; under QLQCSPAELQAELDHSQARLAELE [L14D], 4.88; under QLQCSPAELQAELPHSQARLAELE [L14P], 4.8.
With QLQCSPAELQAELAHSQARLAELE [L14A], the protein stability index turned out to be 2.89.
The same measure for QLQCSPAELQAELFHSQARLAELE [L14F]: 3.27; for QLQCSPAELQAELYHSQARLAELE [L14Y]: 3.21; for QLQCSPAELQAELKHSQARLAELE [L14K]: 3.72.
The same measure for QLQCSPAELQAELHHSQARLAELE [L14H]: 3.94; for QLQCSPAELQAELTHSQARLAELE [L14T]: 3.61.
Under QLQCSPAELQAELIHSQARLAELE [L14I] stands 3.83; under QLQCSPAELQAELGHSQARLAELE [L14G], 4.5; under QLQCSPAELQAELLHSQGRLAELE [A18G], 4.23.
Turning to QLQCSPAELQAELLHSQERLAELE [A18E], the protein stability index was 3.95.
On to QLQCSPAELQAELLHSQPRLAELE [A18P], for which the protein stability index stood at 3.96.
The same measure for QLQCSPAELQAELLHSQRRLAELE [A18R]: 3.24.
Under QLQCSPAELQAELLHSQDRLAELE [A18D] stands 4.03.
Turning to QLQCSPAELQAELLHSQSRLAELE [A18S], the protein stability index was 3.69.
Consider QLQCSPAELQAELLHSQQRLAELE [A18Q], for which the protein stability index is 3.66.
In the case of QLQCSPAELQAELLHSQMRLAELE [A18M], the protein stability index was found to be 2.77.
In the case of QLQCSPAELQAELLHSQCRLAELE [A18C], the protein stability index came to 3.27.
Under QLQCSPAELQAELLHSQIRLAELE [A18I] stands 3.13.
The same measure for QLQCSPAELQAELLHSQWRLAELE [A18W]: 2.18; for QLQCSPAELQAELLHSQKRLAELE [A18K]: 2.77.
Under QLQCSPAELQAELLHSQLRLAELE [A18L] stands 2.68.
On to QLQCSPAELQAELLHSQVRLAELE [A18V], for which the protein stability index was 2.98.
Regarding QLQCSPAELQAELLHSQHRLAELE [A18H], the protein stability index turned out to be 2.85.
The same measure for QLQCSPAELQAELLHSQYRLAELE [A18Y]: 2.81; for QLQCSPAELQAELLHSQNRLAELE [A18N]: 3.12.
Take QLQCSPAELQAELLHSQFRLAELE [A18F]: the protein stability index stood at 2.82.
